# Experimental data taken from US20150007357A1, “Use Of Humanized Mice To Determine Toxicity” (Massachusetts Institute Of Technology, priority 2011, published 2015).
# Entries after “also recorded” stand apart in the source; their conditions may differ.
# Experiments:
# [1] = test system: cytokine-treated humanized mice (NSG engrafted with human HSCs, human IL-15 and Flt-3L plasmids); test: Serum human cytokine release after mAb injection in IL-15/Flt-3L cytokine-treated humanized mice; format: in vivo, mouse; details: for change in serum levels of human cytokines: vs saline control or baseline; for serum levels of human cytokines at 24 hours: 24 hours post-injection
# Experimental: NSG mice were purchased from the Jackson Laboratories and maintained under specific pathogen-free conditions in the animal facilities at Nanyang Technological University and National University of Singapore. To reconstitute mice, newborn pups (less than 48 hours old) were irradiated with 100 cGy using a Gamma radiation source and injected intracardially with CD34+CD133+ cells ([…] cells/recipient). Human IL-15 and human Fltr-3 ligand were cloned separately into pcDNA3.1(+) vector (Invitrogen, USA) as described previously (Chen Q et al. (2009) Proc Natl Acad Sci, USA, 106:21783-21788). For hydrodynamic gene delivery, 12 week-old humice were injected with 50 μg of each plasmid in a total of 2 ml saline within 7 seconds using a 27 gauge needle. All research with human samples and mice was performed in compliance with the institutional guidelines.
# (§1) The blood sampling at seven days post-cytokines treatment was used as the time point (−48 hours) for setting the baseline of the production levels of different cytokines and human cells absolute numbers and percentages. […] Blood samples were collected 2 and 24 hours after the mAb treatment, and all injected animals were euthanized at 24 hours.
# (§2) Single cell suspensions were prepared from spleen by standard procedures. […] Cells were stained with appropriate antibodies in 100 μl PBS containing 0.2% BSA and 0.05% sodium azide for 30 min on ice. Flow cytometry was performed on a LSRII flow cytometer using the FACSDiva software (BD, Franklin Lakes, N.J.), and samples were analyzed using the Flowjo software. For cytokine detection, the concentration of human IL-2, IL-4, IL-6, IL-8, IL-1β, TNF-α, and IFN-γ were determined in sera using a BD Cytometric Bead Array (CBA) (BD Biosciences, USA). The experiments were conducted according to the manufacturer's recommendation and results were analyzed with the FCAP array software (Soft Flow Hungary, BD Biosciences).
# NSG mice were purchased from the Jackson Laboratories and maintained under specific pathogen-free conditions in the animal facilities at Nanyang Technological University and National University of Singapore. To reconstitute mice, newborn pups (less than 48 hours old) were irradiated with 100 cGy using a Gamma radiation source and injected intracardially with CD34+CD133+ cells (1×10^5 cells/recipient). Human IL-15 and human Fltr-3 ligand were cloned separately into pcDNA3.1(+) vector (Invitrogen, USA) as described previously. For hydrodynamic gene delivery, 12 week-old humice were injected with 50 μg of each plasmid in a total of 2 ml saline within 7 seconds using a 27 gauge needle. All research with human samples and mice was performed in compliance with the institutional guidelines.
# as §2, with “procedures. The following human conjugated antibodies were used for flow cytometry staining.” for “procedures.”, “IL-2,” for “IL-2, IL-4,”, “TNF-α, IFN-γ” for “TNF-α,”, “mouse IL-2, IL-6, IL-8” for “IFN-γ”
# [2] = test system: humanized mice treated with M-CSF human cytokine plasmid; test: Serum human cytokine release in humanized mice treated with human M-CSF plasmid; format: in vivo, mouse; details: 2 hours post-injection
# Experimental: as §1
# Single cell suspensions were prepared from spleen by standard procedures. The following human conjugated antibodies were used for flow cytometry staining. CD3, CD4, CD8, CD19, CD28, CD45, CD45RO, CCR7 from Biolegend; CD14 and CD56 from BD Biosciences (BD Biosciences, USA) and mouse CD45.1 from eBioscience. Cells were stained with appropriate antibodies in 100 μl PBS containing 0.2% BSA and 0.05% sodium azide for 30 min on ice. Flow cytometry was performed on a LSRII flow cytometer using the FACSDiva software (BD, Franklin Lakes, N.J.), and samples were analyzed using the Flowjo software. For cytokine detection, the concentration of human IL-2, IL-6, IL-8, IL-1β, TNF-α, IFN-γ and mouse IL-2, IL-6, IL-8 were determined in sera using a BD Cytometric Bead Array (CBA) (BD Biosciences, USA). The experiments were conducted according to the manufacturer's recommendation and results were analyzed with the FCAP array software (Soft Flow Hungary, BD Biosciences). […]
# [3] = test system: human T, B, NK cells and monocytes in cytokine-treated humanized mice; test: Immunophenotyping of human cell lineages in peripheral blood (flow cytometry) of cytokine-treated humanized mice; format: in vivo, mouse
# Experimental: as §1
# as §2, with “procedures. The following human conjugated antibodies were used for flow cytometry staining.” for “procedures.”, “IL-2,” for “IL-2, IL-4,”, “TNF-α, IFN-γ” for “TNF-α,”, “mouse IL-2, IL-6, IL-8” for “IFN-γ”
# [4] = test system: cytokine-treated humanized mice; test: Liver enzymes (AST, ALT) in cytokine-treated humanized mice; format: in vivo, mouse; details: 24 hours post-treatment
# Experimental: as §1
# [5] = test system: cytokine-treated humanized mice; test: Serum mouse cytokines (mIL-2, mIFN-γ, mIL-6) in cytokine-treated humanized mice; format: in vivo; details: mice treated with IL-15 and FLT3L or M-CSF plasmid
# Experimental: Single cell suspensions were prepared from spleen by standard procedures. The following human conjugated antibodies were used for flow cytometry staining. CD3, CD4, CD8, CD19, CD28, CD45, CD45RO, CCR7 from Biolegend; CD14 and CD56 from BD Biosciences (BD Biosciences, USA) and mouse CD45.1 from eBioscience. Cells were stained with appropriate antibodies in 100 μl PBS containing 0.2% BSA and 0.05% sodium azide for 30 min on ice. Flow cytometry was performed on a LSRII flow cytometer using the FACSDiva software (BD, Franklin Lakes, N.J.), and samples were analyzed using the Flowjo software. For cytokine detection, the concentration of human IL-2, IL-6, IL-8, IL-1β, TNF-α, IFN-γ and mouse IL-2, IL-6, IL-8 were determined in sera using a BD Cytometric Bead Array (CBA) (BD Biosciences, USA). The experiments were conducted according to the manufacturer's recommendation and results were analyzed with the FCAP array software (Soft Flow Hungary, BD Biosciences).
# [6] = test system: PBMCs; details: incubated in aqueous phase; previous study; cited from earlier work
# [7] = 2 hours post-injection, 1 mg/kg i.v.
# [8] = IL-15 and Flt-3L treated mice, 2 hours post-injection, 1 mg/kg i.v.
# [9] = 2 and 24 hrs post-injection, 1 mg/kg
Substance,"change in serum levels of human cytokines [1, 7]",serum levels of human cytokines at 24 hours ([1]; 1 mg/kg i.v.),"serum levels of human IL-6 [1, 8] [ng/mL]",serum levels of human IL-6 [2] [ng/mL],serum levels of human IL-8 [2] [ng/mL],"NK cell numbers in peripheral blood [3, 9]","T cell numbers in peripheral blood [3, 9]",reduction of the CD14+ cells ([3]; 2 hours post-injection) [fold],Aspartate aminotransferase (AST) level [4],mouse IL-6 (mIL-6) in sera [5],mouse mIL-2 and mIFN-γ in sera [5],"serum levels of human IL-2 ([1]; IL-15 and Flt-3L treated mice, 2 hours post-injection, 1 mg/kg) [ng/mL]","serum levels of human IL-8 [1, 8] [ng/mL]","B cell numbers in peripheral blood [3, 9]","monocyte numbers in peripheral blood [3, 9]",IL-2 response of PBMCs [6] [pg/mL],IL-6 response of PBMCs [6] [pg/mL],IL-8 response of PBMCs [6] [pg/mL]
OKT3: mouse mAb against human CD3 for suppressing renal allograft rejection (Biolegend),"significant increase in the circulating levels of IL-2, IL-6, IL-8 and IFN-γ","IL-2 expression was diminished 24-hours post injection, the other cytokines remained elevated",0.1318,1.5128,0.7226,transient decrease,complete depletion,4,did not induce a significatively increase,increase; also recorded: slightly increase,not,–,–,–,–,–,–,–
"Alemtuzumab: humanized anti-CD52 antibody for treating chronic lymphocytic leukemia (Campath, Genzyme)","increase in the serum levels of IL-2, IL-6, IL-8 and IL-1β","most cytokines, except IL-1β, had returned to the baseline level",0.0192,–,–,complete depletion,complete depletion,–,did not induce a significatively increase,increase,–,0.0316,0.2241,complete depletion,complete depletion; also recorded: only residual monocytes cell remaining at 24 hrs,14.0,88,6050
